Test results published in IntAct's records for PubMed 16303566.

B1: Gigaxonin (Homo sapiens), Q9H2C0 (parent)
chain: MAEGSAVSDPQHAARLLRALSSFREESRFCDAHLVLDGEEIPVQKNILAAASPYIRTKLNYNPPKDDGSTYKIELEGISVMVMREILDYIFSGQIRLNEDTIQDVVQAADLLLLTDLKTLCCEFLEGCIAAENCIGIRDFALHYCLHHVHYLATEYLETHFRDVSSTEEFLELSPQKLKEVISLEKLNVGNERYVFEAVIRWIAHDTEIRKVHMKDVMSALWVSGLDSSYLREQMLNEPLVREIVKECSNIPLSQPQQGEAMLANFKPRGYSECIVTVGGEERVSRKPTAAMRCMCPLYDPNRQLWIELAPLSMPRINHGVLSAEGFLFVFGGQDENKQTLSSGEKYDPDANTWTALPPMNEARHNFGIVEIDGMLYILGGEDGEKELISMECYDIYSKTWTKQPDLTMVRKIGCYAAMKKKIYAMGGGSYGKLFESVECYDPRTQQWTAICPLKERRFGAVACGVAMELYVFGGVRSREDAQGSEMVTCKSEFYHDEFKRWIYLNDQNLCIPASSSFVYGAVPIGASIYVIGDLDTGTNYDYVREFKRSTGTWHHTKPLLPSDLRRTGCAALRIANCKLFRLQLQQGLFRIRVHSP

Variants of: B1
Conditions: with tbcb_human TBCB

Variant | effect of a mutation on the interaction
R545C | disrupting interaction
